Test results published in publication PMC10998593.

Biological target: GST-NSUN5 (UniProt Q96P11 1-429)
Experiment: EMSA

Chain of GST-NSUN5 (Q96P11 whole entry): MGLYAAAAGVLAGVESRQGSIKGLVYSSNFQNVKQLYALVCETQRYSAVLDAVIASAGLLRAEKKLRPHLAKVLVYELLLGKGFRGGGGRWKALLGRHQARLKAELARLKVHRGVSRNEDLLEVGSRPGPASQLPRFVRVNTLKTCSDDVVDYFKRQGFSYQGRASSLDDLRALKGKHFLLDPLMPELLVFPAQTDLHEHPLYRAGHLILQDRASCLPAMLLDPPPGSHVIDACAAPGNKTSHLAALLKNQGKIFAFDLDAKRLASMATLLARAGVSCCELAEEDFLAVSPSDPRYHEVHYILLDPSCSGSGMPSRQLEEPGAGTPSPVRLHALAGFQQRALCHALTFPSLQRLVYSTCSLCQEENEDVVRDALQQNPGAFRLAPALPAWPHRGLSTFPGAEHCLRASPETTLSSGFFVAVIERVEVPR

GUCCUUCGGGCUGGUGACAGGG (ssRNA) [Probe1 (Oligo 1), CTNNB1]
binding result: binds
